Measurements from article PMC7153833.

How the values were obtained:
[1] = target: hyper-galactosylated (G2 F) variant of the mAb; assay: native MS
[2] = target: α-2,6-sialic acid variant (ST6) of the mAb; assay: native MS

Substance: recombinant Human Fc gamma RIIIa/CD16a (V176) protein (from UniProt P08637 17-208) (receptor)
- fold change of binding affinity against G0 F [1]: 1.5 fold
- fold change of binding affinity against ST3 [2]: 1.72 fold
